Measured values taken from patent publication US20230349919A1 (Regeneron, published 2023).

Legend:
[1] = biological target: T1, human IL-4Rα (hIL-4Rα) monomeric protein (human, UniProt P24394 26-232, limits assumed); experiment: Biacore (SPR)
T1 construct: also called hIL-4Rα antigen; barcoded hIL-4Rα

[2] = biological target: T1, human IL-4Rα (hIL-4Rα) monomeric protein; experiment: Biacore (SPR); negative log10 of Kd
[3] = biological target: T1, human IL-4Rα (hIL-4Rα) monomeric protein; experiment: barcoded-antigen count on source cell (scRNA-seq)

| Binder | Kd [1] [nM] | negLog10Kd [2] | REGN560.L15_ab_raw [3] [counts] |
| --- | --- | --- | --- |
| Table 1 Line # 1 antibody (BM_Plasma_cell) (antibody, human IgG4, V domains shown, Cloned with human IgG4/human Igk constants for Kd; barcode counts are of the source cell's own IgG) VH: EVQLVESGGGLVKPGGSLRLSCAASGFTFSSYSMNWVRQAPGKGLEWVSSISSSSSYIYYADSVKGRFTISRDNAKNSLYLQMNSLRAEDTAVYYCASLAARPFWGQGTMVTVSS VL: DIQMTQSPSSVSASVGDRVTITCRASQGISSWLAWYQQKPGRAPKLLIYAASSLQSGVPSRFSGSGSGTDFTLTISSLQPEDFATYYCQQANSFPLTFGGGTKVEIK | 416 | 6.38 | 11200 |
| Table 1 Line # 35 antibody (SP_B_cell) (antibody, human IgG4, V domains shown, Cloned with human IgG4/human Igk constants for Kd; barcode counts are of the source cell's own IgG) VH: EVQLVESGGGLVKPGGSLRLSCAASGFTFSSYSMNWVRQAPGKGLEWVSSISSSSSYIYYADSVKGRFTISRDNAKNSLYLQMNSLRAEDTAVYYCARDRSSSPLENWGQGTLVTVSS VL: DIQMTQSPSSVSASVGDRVTITCRASQGISSWLAWYQQKPGKAPKLLIYAASSLQSGVPSRFSGSGSGTDFTLTISSLQPEDFATYYCQQANSFPITFGQGTRLEIK | 29.3 | 7.53 | 6710 |
| Table 1 Line # 42 antibody (SP_Plasma_cell) (antibody, human IgG4, V domains shown, Cloned with human IgG4/human Igk constants for Kd; barcode counts are of the source cell's own IgG) VH: EVQLLESGGGLVQPGGSLRLSCAASGFTFISYTLSWVRQAPGKGLEWVSAISGSGGSTYYVDSVKGRFTISRDNSRNTLYLQMNSLRAEDTAVYYCAKDLGSTVYWGQGTLVTVSS VL: not shown | 127 | 6.9 | 2080 |
| Table 1 Line # 13 antibody (BM_Plasma_cell) (antibody, human IgG4, V domains shown, Cloned with human IgG4/human Igk constants for Kd; barcode counts are of the source cell's own IgG) VH: EVQLVESGGEMIRPGGSLRLSCAASGFIFDDYGMSWIRQAPGKGLEWVSGINWNGGHTGYSDSVKGRFTISRDNAKNSLYLQMNSLRAEDTALYHCVRDSSSSWYGVFDYWGQGTLVTVSS VL: DIQMTQSPSSLSASVGDRVTITCRASQGISNSLAWYQQKPGTVPKLLIFAASTLLSGIPSRFSGGGSGTDFTLTISSLQPEDVATYYCQNYNSAPRTFGQGTKVEIK | 58.2 | 7.24 | 2930 |
| Table 1 Line # 16 antibody (BM_Plasma_cell) (antibody, human IgG4, V domains shown, Cloned with human IgG4/human Igk constants for Kd; barcode counts are of the source cell's own IgG) VH: EVQLVESGGGLVQPGRSLRLSCAASGFTFDDYGMHWVRQAPGKGLEWVSGISWNSGHIGYADSVKGRFTISRDNAKNSLNLQMNSLRAEDTALYYCAKDISSSWYGYFDLWGRGTLVTVSS VL: DIQMTQSPSSLSASVGDRVTITCRASQGISNFLAWFQQKPGKVPKLLIYAASTLQSGVPSRFSGSGSGTDFTLTISSLQPEDVATYYCQEYNSAPRTFGQGTKVEIK | 8.04 | 8.09 | 2370 |
| Table 1 Line # 7 antibody (BM_Plasma_cell) (antibody, human IgG4, V domains shown, Cloned with human IgG4/human Igk constants for Kd; barcode counts are of the source cell's own IgG) VH: EVQLVESGGGLVQPGRSLRLSCAASGFTFDDYAMHWVRQAPGKGLEWVSGISWNGASIGYADSLKGRFTISRDNAKNSLYLQMNSLRSEDTALFYCARDYSSAWYGYFDYWGQGTLVTVSS VL: DIQMTQSPSSLSASVGDRVTITCRASQDISNYLAWYQQKPGKVPKLLIYAASTLQSGVPSRFSGSGSGTDFTLTISSLQPEDVATYYCQNYNSVPRTFGQGTKVEIK | 15.5 | 7.81 | 4140 |
| Table 1 Line # 15 antibody (BM_Plasma_cell) (antibody, human IgG4, V domains shown, Cloned with human IgG4/human Igk constants for Kd; barcode counts are of the source cell's own IgG) VH: EVQLVESGGALVQPGRSLRLSCAASGFAFDDYAMHWVRQAPGKGLEWVSGISWNGASLGYADSLKGRFTISRDNAKNSLYLQMNSLRSEDTALFYCARDYSSAWYGYFDYWGQGTLVTVSS VL: DIQMTQSPSSLSASVGDRVTITCRASQDISNYLAWYQQKPGKVPKLLIYAASTLQSGVPSRFSGSGSGTDFTLTISSLQPQDVATYYCQNYNSVPRTFGQGTKVEIK | 19.9 | 7.7 | 2580 |
| Table 1 Line # 11 antibody (BM_Plasma_cell) (antibody, human IgG4, V domains shown, Cloned with human IgG4/human Igk constants for Kd; barcode counts are of the source cell's own IgG) VH: EVQLVESGGGLVQPGRSLRLSCAASGFTFDDYAMHWVRQAPGKGLEWVSGISWNSGSIGYADSVKGRFTISRDNAKNSLYLQMNSLRAEDTALYYCARDYSSAWYGYFDSWGQGTLVTVSS VL: DIQMTQSPSSLSASVGDRVTITCRASQGINNYLAWYQQKPGKIPKLLIFTASTLQSGVPSRFSGSGSGTDFTLTINSLQPEDVATYYCQNYNSVPRTFGQGTKVEIK | 27.5 | 7.56 | 3210 |
| Table 1 Line # 53 antibody (SP_Plasma_cell) (antibody, human IgG4, V domains shown, Cloned with human IgG4/human Igk constants for Kd; barcode counts are of the source cell's own IgG) VH: EIQLVESGGGLVQPGRSLRLSCAASGFTFDDYAMHWVRQAPGKGLEWVSGINWNNGSLGYADSVKGRFTISRDNAKNSLYLQMNSLRTEDTALYYCVKDTGSWASYYGMDVWGHGTTVTVSS VL: DIQMTQSPSSLSASIGDRVTITCRASQGIRNDLGWYQQKPGKAPKRLIYAASSLQSGVPSRFSGSGSGTEFTLTISSLQPEDFATYYCLQHNSYPYTFGQGTKLEIK | 247 | 6.61 | 818 |
| Table 1 Line # 54 antibody (SP_Plasma_cell) (antibody, human IgG4, V domains shown, Cloned with human IgG4/human Igk constants for Kd; barcode counts are of the source cell's own IgG) VH: QVQLVQSGAEVKKPGASVKVSCKASGYTFTNYGISWVRQAPGQGLEWMGWISVYNGNTNYAQKLQGRVTMTTDTSTSTAYMEVRSLRSDDTAVYYCARGVNWNYVFDYWGQGTLVTVSS VL: DIQMTQSPSSLSASVGDRVTITCRASQGIRNDLGWYQQKPGKAPKRLIYVVSSLQSGVPSRFSGSGSGTEFTLTISSLQPEDFATYYCLQHNSYPWTFGQGTKVEIK | 13.5 | 7.87 | 815 |
| Table 1 Line # 18 antibody (BM_Plasma_cell) (antibody, human IgG4, V domains shown, Cloned with human IgG4/human Igk constants for Kd; barcode counts are of the source cell's own IgG) VH: EVQLVQSGAEVKKPGESLKISCKGSGYRFTTNWIGWVRQMPGKGLEWMGIIYPDDSDTRYSPSFQGQVTISADKSINTAYLHWNSLKSSDTAIYYCARGANWFDPWGQGTLVTVSS VL: EIVLTQSPGILSLSPGKRATLSCRASQSVSSNFLAWYQQKPGQAPRLLIYGTSSRANGIPDRFSGSGSGTDFTLTISGLEPEDFAEYYCQQYGSSVTFGQGTRLEIK | 41.4 | 7.38 | 2170 |
| Table 1 Line # 34 antibody (SP_B_cell) (antibody, human IgG4, V domains shown, Cloned with human IgG4/human Igk constants for Kd; barcode counts are of the source cell's own IgG) VH: EVQLVASGGDLVQPGRSLRLSCAASGFTFDDFGMHWVRQAPGKGLEWVSGISWNGGHMGYAASVKGRFTMSRDNAKNSLYLQMNSLRVEDTALYYCVKEFSSSWYGFFDLWGRGTLVTVSS VL: DIQMTQSPSSLSASVGDRVTITCRASQGLGNSVAWYQQKPGQIPRLLISAAASLQSGVPSRFSGSGSGTDFTLTISSLQPEDVATYYCQNYNSAPRTFGQGTNVEIK | 34.2 | 7.47 | 6890 |
| Table 1 Line # 46 antibody (SP_Plasma_cell) (antibody, human IgG4, V domains shown, Cloned with human IgG4/human Igk constants for Kd; barcode counts are of the source cell's own IgG) VH: EVQLEASGGDLVQPGRSLRLSCAASGFIFDDFGMHWVRQAPGKGLEWVSGISWNGGHIGYADSVKGRFTISRDNAKNSLYLQMNSLRAEDTALYYCAKEHSSSWYGFFDFWGRGTLVTVSS VL: DIQMTQSPSSLSASVGDRVTITCRASQGLSNSVAWYQQKPGQIPRLLISAAASLQSGVPSRFSGSGSGTDFTLTISRLQPEDVATYYCQNYNSAPRTFGQGTNVEIK | 49.2 | 7.31 | 1520 |
| Table 1 Line # 37 antibody (SP_B_cell) (antibody, human IgG4, V domains shown, Cloned with human IgG4/human Igk constants for Kd; barcode counts are of the source cell's own IgG) VH: QVHLVESGGDVVQPGRSLRLSCAASGFTFSYYGMHWVRQAPFKGLEWVAVIWYDGSNKYYADSVKGRFTITRDNSKNTVYLQMNSLRAEDTAIYYCARWGGFGVTGTHLDYWGQGTLVTVSS VL: DIQLTQSPSLLSASVGDRVTITCWASQDIAGHFAWYQQKPGTVPKLLIYAISTLDSGVPSRFSGSRSGTEFTLTISSLQPEDFATYYCQHLNSYPYTFGQGTKLEIK | 197 | 6.71 | 6230 |
| Table 1 Line # 2 antibody (BM_Plasma_cell) (antibody, human IgG4, V domains shown, Cloned with human IgG4/human Igk constants for Kd; barcode counts are of the source cell's own IgG) VH: EVRLVESGGGLVQPGRSLRLSCAASGFTFDDYAMHWVRQAPGRGLEWVSGISWKGDALGYADSVKGRFTISRDNAKNSLYLQMSSLRAEDTALYYCAKDTGSYHYYYGLDVWGQGTTVAVSS VL: DIQMTQSPSSLSASVGDRVTITCRASQGIRTDLGWYQQKPGKAPKRLIYAASNLHGGVPSRFSGTGSGTDFTLTISSLQPEDFATFFCLQHYSYPLTFGGGTKVEIK | 161 | 6.79 | 6540 |
| Table 1 Line # 41 antibody (SP_Plasma_cell) (antibody, human IgG4, V domains shown, Cloned with human IgG4/human Igk constants for Kd; barcode counts are of the source cell's own IgG) VH: EVQLVESGGGLVQPGRSLRLSCAASGFTFDDYAMHWVRQAPGRGLEWVSGISWKGDALGYADSVKGRFTISRDNAKNSLYLQMSSLRAEDTALYYCAKDTGSYHYYYGLDVWGQGTTVTVSS VL: DIQMTQSPSSLSASVGDRVTITCRASQGIRNDLGWYQQKPGKAPERLIYAASNLQSGVPSRFSGSGSGTEFTLTISSLQPEDFATFYCLQHYSYPLTFGGGTKVEIK | 150 | 6.82 | 2460 |
| Table 1 Line # 49 antibody (SP_Plasma_cell) (antibody, human IgG4, V domains shown, Cloned with human IgG4/human Igk constants for Kd; barcode counts are of the source cell's own IgG) VH: EVHLLESGGGFIQPGGSLRLSCAASGFTFSTYAMNWVRLAPGKGLEWVSTISGSGGFTSYTDSVQGRFTISRDNSKNKLYLQINNLTAEDTAVYYCAKDRRIVGATGFDYWGQGALVTVSS VL: DIQMTQSPSSLSASAGDRVTITCRASQSISSYLNWYQQKPGKAPKLLIYAASSLQSGVPSRFSGSGSGTDFTLTISSLQPEDSATYYCQQSYGFHTFGQGTRLEIK | 132 | 6.88 | 1200 |
| Table 1 Line # 31 antibody (SP_B_cell) (antibody, human IgG4, V domains shown, Cloned with human IgG4/human Igk constants for Kd; barcode counts are of the source cell's own IgG) VH: EVQLVESGGGLVQPGRSLRLSCAASGFTFDDYAMHWVRQAPGKGLEWVSGISWNSGNIGYADSVKGRFTISRDNANNSLYLQMNSLRAEDTALYYCAKDYSSAWYGYFDYWGQGTLVTVSS VL: not shown | 133 | 6.88 | 8520 |
| Table 1 Line # 4 antibody (BM_Plasma_cell) (antibody, human IgG4, V domains shown, Cloned with human IgG4/human Igk constants for Kd; barcode counts are of the source cell's own IgG) VH: EVQLVESGGGLVQPGRSLRLSCAASGFTFDDFAMHWVRQAPGKGLEWVSGISWNSGSIGYADSVKGRFTISRDNAKNSLYLQMNSLRAEDTALYYCTKDSSSSWYGYFDLWGRGTLVTVSS VL: not shown | 158 | 6.8 | 5050 |
| Table 1 Line # 40 antibody (SP_Plasma_cell) (antibody, human IgG4, V domains shown, Cloned with human IgG4/human Igk constants for Kd; barcode counts are of the source cell's own IgG) VH: QVQLQESGPGLVKPSETLSLTCTISGGSISTYYWSWIRQPPGKGLEWIGYIYYSGNTNYNPSLKSRVTISVDTSKNQFSLKLNSVTAADTAVYYCARHRGSYVYGMDVWGQGTTVTVSS VL: DIQMTQSPSSLSASLVDRVTITCRASQTISSYLNWYQQKPGKAPKLLIYGASILQSGVPSRFSGSGSGTDFTLTISSLQPEDHAVYFCQQSYSSPTFGGGTKVEIK | 118 | 6.93 | 5520 |
